Measured values reported in the nanobody polyreactivity screen of Harvey et al. (2022).

Experiment: yeast display, Sf9 membrane polyspecificity reagent, FACS + sequencing; frameworks hold sequencing errors
How it was run: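 Galactose-induced (36–48 hours) yeast carrying a synthetic nanobody display library were exposed to 10% biotinylated, detergent-solubilized Sf9 membrane reagent at 4 °C for 1 hour. FACS followed streptavidin microbead enrichment, using low and high (top ~1%) gates for expression (anti-HA) and reagent binding (streptavidin). Colony PCR, MiSeq 2 × 250 sequencing and CDR-length filtering followed. Labels for polyreactivity reflect the gate of origin.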

Row | Sequence | polyreactivity (PSR sort gate)
1 | QVQLVESGGGLVQAGGSLRLSCAASGFIFDGYTMGWYRQAPGKERELVAAISRSGGRTYYADSVKGRFTISRDNAKNTVYLQMNSLKPEDTAVYYCAVRYRQYSQTVASDYGYWGQGTQVTLSS | high polyreactivity
2 | QVQLVESGGGLVQAGGSLRLSCAASGFIFDIYAMGWYRQAPGKERELVAAITWNSGSTHYADSVKGRITISRDNAKNTVYLQMNSLKPEDTAVYYCAADEVTYAYYPYDYWGQGTQVTVSS | low polyreactivity
3 | QVQLVESGGGLVQAGGSLRLSCAASGFIFDLYAMGWSRQAPGKERELVAVISFDGGSTYYADSVKGRFTISRDNAKNTVYLQMNSLKPEDTAVYYCNTYAGLVSPSDLYDYWGQGTQVTVSS | low polyreactivity
4 | QVQLVESGGGLVQAGGSLRLSCAASGFIFDNNAMGWYRQAPGKEREFVAAISGSGGSTYYADSVKGRFTISRDNAKNTVYLQMNSLKPEDTAVYYCAAPIPDYTYIYPAYDDYWGQGTQVTVSS | low polyreactivity
5 | QVQLVESGGGLVQAGGSLRLSCAASGFIFDPYAMGWYRQAPGTERELVASINTRGDRTSYADSVKGRFTISRDNAKNTVYLQMNSLKPEDTAVYYCNADAVDQVGPDDDYWGQGTQVTVSS | low polyreactivity
6 | QVQLVESGGGLVQAGGSLRLSCAASGFIFDQYAMGWYRQAPGKERELVATINWSGGRTYYADSVKGRFTISRDNAKNTVYLQMNSLKPEDTAVYYCAADTYRTKLHSFRTGSGYDYWGQGTQVTVSS | low polyreactivity
7 | QVQLVESGGGLVQAGGSLRLSCAASGFIFDRNAMGWYRQAPGKERELVAAISVSGGNTYYADSVKGRFTISRDNAKNTVYLQMNSLKPEDTAVYYCAASRYHSTRGDYWGQGTQVTVSS | high polyreactivity
8 | QVQLVESGGGLVQAGGSLRLSCAASGFIFDSYAMGWYRQAPGKERELVAAISWSGGRTYYADSVKGRFTISRDNAKNTVFLQMNSLKPEDSAVYYCAADTWFGMDYWGQGTEVTVSS | high polyreactivity
9 | QVQLVESGGGLVQAGGSLRLSCAASGFIFDSYAMGWYRQAPGKERELVAAISYSAGSTSYADSVKGRFTISRDNAKNTVYLQMNSLKPEDTAVYYCNARYYPLYSNSYYSWGQGTQVTVSS | low polyreactivity
10 | QVQLVESGGGLVQAGGSLRLSCAASGFIFDSYAMGWYRQAPGKESELVAAINWNGGRTYYADSVRGRFTISRDNAKNTVYLQMNSLKPEDTAVYYCNAPGIHLGYYRFGYWGQGTQVTVSS | high polyreactivity
11 | QVQLVESGGGLVQAGGSLRLSCAASGFIFDSYVMGWYRQAPGKERELVAAISRRNSSTYYADSVKGRFTNSRDNAKNTVYLQMNSLKPEDTAVYYCAAKYLRAYGYWGQGTQVTVSS | high polyreactivity
12 | QVQLVESGGGLVQAGGSLRLSCAASGFIFDTYAMGWYRQAPGKERELVATINDRGDSTSYADSVKGRFTISRDNAKNTVYLQMNSLKPEDTAVYYCARTWGLRYRWSYGRSRYNYWGQGTQVTVSS | low polyreactivity
13 | QVQLVESGGGLVQAGGSLRLSCAASGFIFDVYAMGWYRQAPGKERELVAAISSSGGRTYYADSVKGRFTISRDNAKNTVYLQMNSLKPEDSAVYYCAAKTHSRTKVYTADYWGQGTQVTVSS | high polyreactivity
14 | QVQLVESGGGLVQAGGSLRLSCAASGFIFDVYAMGWYRQAPGNERELVATISSGDSTYYADSVKGRFTISRDNAKNTVYLQMNSLKPEDTAVYYCNTTEHKYVSSFEYGYWGQGTQVTVSS | low polyreactivity
15 | QVQLVESGGGLVQAGGSLRLSCAASGFIFDYYAMGWYRQAPGKERELVAVINQSGTSTYYADSVKGRFTISRDNAKNTVYLQMNSLKPEDTAVYYCSVDYGTPVYWDEMYYWGQGTQVTVSS | low polyreactivity
16 | QVQLVESGGGLVQAGGSLRLSCAASGFIFDYYMGWYRQAPGKERELVARISYTGGSTYYADSVKGRFTISRDNAKNTVYLQMNSLNPEDTAVYYCATRGAEAERFASYDFDYWGQGTQVTVSS | low polyreactivity
17 | QVQLVESGGGLVQAGGSLRLSCAASGFIFEDYAMGWYRQAPGKERELVAAIRSNDDSTYYADSVKGRFTISRDNSKNTVYLHMNSLKPEDTAVYYCNKGLRRWSTRSHYYYWGQGTQVTVSS | high polyreactivity
18 | QVQLVESGGGLVQAGGSLRLSCAASGFIFEDYAMGWYRQAPGKERELVAAITWRGGRTYYADSVKGRFTISRDNAKNTVYLQMNSLKPEDTAVYYCRPQVYSYASRYGYWGQGTQVTVLS | low polyreactivity
19 | QVQLVESGGGLVQAGGSLRLSCAASGFIFEHYAMGWYRQAPGKEREMVARISWRGGSTYYADSVKGRFTISRDNAKNTVYLQMNSLKPEDTAVYYCNAQEVVYFGYYPSDYWGQGTQVTVSS | low polyreactivity
20 | QVQLVESGGGLVQAGGSLRLSCAASGFIFETNAMGWYRQAPGNERELVAAISSRGGSTYYADSVKGRFTISRDNAKNTVYLQMNSLKPEDTAVYYCAAKLVVSYGQEYDYWGQGTQVTVSS | low polyreactivity
21 | QVQLVESGGGLVQAGGSLRLSCAASGFIFEYYAMGGYRQAPGKERELVAAISGGGRTYYADSVKGRFTISRDNAKNTVYLQMNSLKPEDTAVYYCAAGYAYRGYWVNRITRDGYWGQGTQVTVSS | high polyreactivity
22 | QVQLVESGGGLVQAGGSLRLSCAASGFIFEYYAMGWYRQAPGKERELVAAISSGGGRTYYADSVKGRFTISRDNAKNTVYLQMNSLKPEDTAVYYCAAGFYVDYQLYEYWGQGTQVTVSS | high polyreactivity

Row | Sequence | polyreactivity (PSR sort gate)
23 | QVQLVESGGGLVQAGGSLRLSCAASGFIFEYYAMGWYRQAPGKERELVAAISSSGGSTYYADSVKGRFTISRDNAKITVYLQINSLKPEDTAVYYCAKDYAPSAKKLHYWGQGTQVTVSS | low polyreactivity
24 | QVQLVESGGGLVQAGGSLRLSCAASGFIFFNYAMGWYRQAPGKERELVAVIDRSGGTTYYADSVKGRFTISRDNAKNTVYLQMNSLKPEDTAVYYCNADDFTYPSGWGFIYDYWGQGTQVTVSS | low polyreactivity
25 | QVQLVESGGGLVQAGGSLRLSCAASGFIFFPYTMGWYRQAPGKERELVAAITNGGSTSYADSVKGRFTISRDNAKNTVYLQMNSLKPEDTAVYYCAADLGRNLLHTYYYWGQGTQVTVSS | low polyreactivity
26 | QVQLVESGGGLVQAGGSLRLSCAASGFIFFQYAMGWYRQAPGKERELVAAISSGGNTYYADSVKGRFTISRDNAKNTVYLQMNSLKPEDTAVYYCAAYYPLRKGYGYWGQGTQVTVSS | high polyreactivity
27 | QVQLVESGGGLVQAGGSLRLSCAASGFIFFRNAMGWYRQAPGKERELVAAISGSGGSTYYADSVKGRFTISRDNAKNTVYLQLNSLKPEDTAVYYCAAAGPFNYDYWGQGTHVTVSS | high polyreactivity
28 | QVQLVESGGGLVQAGGSLRLSCAASGFIFFTNTMGWYRQAPGKEWELVAAINSNGGRTYYADSVKGRFTISRDNAKNTVYLQMNSLKPEDTAVYYCAARSVGGVARLDYWGQGTQVTVSS | low polyreactivity
29 | QVQLVESGGGLVQAGGSLRLSCAASGFIFFTYAMGWYRQAPGKERELVAAISSRGGSTYYADSVKGRFTISRDNAKNTVYLQMNSLKPEDTAVYYCADRTRRRRGEYDYWGQGTQVTVSS | high polyreactivity
30 | QVQLVESGGGLVQAGGSLRLSCAASGFIFGANAMGWYRQAPGKERELVAAITWSAGRTYYADSVKGRFTISRDNAKNNVYLQMNSLKPEDTAVYYCAKQRARQSPEVGYWGQGTQVTVSS | high polyreactivity
31 | QVQLVESGGGLVQAGGSLRLSCAASGFIFGDNAMGWYRQAPGKERELVAAINSGSRTSYADSVKGRFTISRDNAKNTVYLQMNSLKPEDTAVYYCAAESVSSGDNASRYDYWGQGTQVTVSS | low polyreactivity
32 | QVQLVESGGGLVQAGGSLRLSCAASGFIFGDNAMGWYRQAPGKERELVAGITVSDGSTYYADSVKGRFTISRDNAKNTVYLQMNSLKPEDTAVYYCNAAGRYKPGAPYDYWGQGTQVTVSS | low polyreactivity
33 | QVQLVESGGGLVQAGGSLRLSCAASGFIFGDYAMGWYRQAPGKEGELVAAIRGSDSTTYYADSVKGRFTISRDNAKNTVYLQMNSLKPEDTAVYYCAAVGVVPLKKSARVYYWGQGTQVTVSS | low polyreactivity
34 | QVQLVESGGGLVQAGGSLRLSCAASGFIFGDYAMGWYRQAPGKERELVAAIRGSDSTTYYADSVKGRFTISRDNAKNTVYLQMNSLKPEDTAVYYCAAVGVVPRKKSARVYYWGQGTQVTVSS | low polyreactivity
35 | QVQLVESGGGLVQAGGSLRLSCAASGFIFGEYTMGWYRQAPGKEREFVAAISWSGGSTSYADSVKGRFTISRDNAKNTVYLQMNSLKPEDTAVYYCAARYGSDYDYWGQGTQVTVSS | low polyreactivity
36 | QVQLVESGGGLVQAGGSLRLSCAASGFIFGGFTMGWSRQAPGNERELVAAISRSGGSTYYADSVKGRFTISRDNAKNTVYLQMNSLKPEDTAVYYCATLNYYGEVEYWGQGTQVTVSS | high polyreactivity
37 | QVQLVESGGGLVQAGGSLRLSCAASGFIFGGYAMGWYRHAPRKERELVAAISRSGGSTYYADSVKGRFTISRDNAKNTVYLQMNSLKPEDTAVYYCNAVPRRQGFNYWGQGTQVSVSS | high polyreactivity
38 | QVQLVESGGGLVQAGGSLRLSCAASGFIFGGYAMGWYRQAPGKERELVAAISWSGDNTYYADSVKGRFTISRDNAKNTVYLQMNSLKPEDTAVYYCAADSYGQEYDYWGQGTQVTVSS | low polyreactivity
39 | QVQLVESGGGLVQAGGSLRLSCAASGFIFGGYVMGWYRQAPGKERELVAAITWSGGSTYYADSVKGRFTISRDNAKHTVYVQLNSQKREDTAVYYCNSRVPARLWRWSPYPVDYWGQGTQVTLSS | high polyreactivity
40 | QVQLVESGGGLVQAGGSLRLSCAASGFIFGIYDMGWYRQAPGKERELVAAITYSGSSTYYADSVKGRFTISRDNAKNTVYLQMNSLKQEDTAVYYCNKTPWDWDYWDPEYYYWGQGTQVTVSS | high polyreactivity
41 | QVQLVESGGGLVQAGGSLRLSCAASGFIFGKYAMGWYRQAPGKERELVAAITSDGRTYYADSVKGRFTISRDNAKNTVYLQMNSLKPEDTAVYYSAATRYGHRYYYRPYEYWGQGSQVTVSS | high polyreactivity
42 | QVQLVESGGGLVQAGGSLRLSCAASGFIFGLYAIGWYRQAPGKERELVAAISRSGGSTYYADSVKGRFTISRDNAKNTVYLQMNSLKPEDTAVYYCNARYSWPRATWYDYWGQGTQVTVSS | high polyreactivity
43 | QVQLVESGGGLVQAGGSLRLSCAASGFIFGNNDMGWYRPAPGKERELVAAISNSGGRTYYADSVKGRFTISRDNAKNTVYLQMNSLKPEDTAVYYCAKAYRPPGYDSWGQGTQVTVSS | high polyreactivity
